From IntAct's records for PubMed 15582318

B1: Telethonin (Homo sapiens), O15273 (parent)
chain: MATSELSCEVSEENCERREAFWAEWKDLTLSTRPEEGCSLHEEDTQRHETYHQQGQCQVLVQRSPWLMMRMGILGRGLQEYQLPYQRVLPLPIFTPAKMGATKEEREDTPIQLQELLALETALGGQCVDRQEVAEITKQLPPVVPVSKPGALRRSLSRSMSQEAQRG
B2: Telethonin (Homo sapiens), O15273 (parent)
chain: B1 chain
partner: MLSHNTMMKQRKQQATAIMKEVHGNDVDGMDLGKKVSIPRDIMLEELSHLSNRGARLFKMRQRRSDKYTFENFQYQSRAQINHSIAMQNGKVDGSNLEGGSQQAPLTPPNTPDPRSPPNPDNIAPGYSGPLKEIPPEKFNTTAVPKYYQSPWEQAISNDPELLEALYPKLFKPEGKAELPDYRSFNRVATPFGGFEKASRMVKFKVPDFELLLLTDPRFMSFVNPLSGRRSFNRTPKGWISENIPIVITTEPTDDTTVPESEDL

Variants of: B1
Conditions: with csrp3_human CSRP3, P50461
Chain of csrp3_human CSRP3, P50461 (P50461 whole entry): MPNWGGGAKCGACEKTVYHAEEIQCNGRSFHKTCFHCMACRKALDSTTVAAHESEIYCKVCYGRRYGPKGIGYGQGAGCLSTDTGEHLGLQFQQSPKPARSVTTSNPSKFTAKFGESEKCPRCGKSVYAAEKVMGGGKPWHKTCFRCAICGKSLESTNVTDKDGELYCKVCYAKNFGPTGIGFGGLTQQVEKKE

| effect of a mutation on the interaction | Variant |
| --- | --- |
| decreasing interaction strength | R87Q |
| decreasing interaction strength | E132Q |

Variants of: B1
Conditions: with titin_human TTN

| effect of a mutation on the interaction | Variant |
| --- | --- |
| decreasing interaction strength | R87Q |
| decreasing interaction strength | E132Q |
| increasing interaction strength | T137I |
| increasing interaction strength | R153H |

Variants of: B2
Conditions: with myoz2_human MYOZ2, Q9NPC6

| effect of a mutation on the interaction | Variant |
| --- | --- |
| increasing interaction strength | R153H |
| decreasing interaction strength | E132Q |
| decreasing interaction strength | R87Q |
| increasing interaction strength | T137I |
